B1: r16_88_TrROS_Hall (parent)
chain: EVIELKIKFKTPEQREKLKEIAKKLNAEVVEEKDGEVIIRFKTPEQAERALKEAEKLGAEVEL

Variants of: B1
Assay: folding stability dG (cDNA display proteolysis); higher = more stable
Conditions: PBS, room temperature

Q: For EVIELKIKFKTPEQREKLKEIAKKLNAEVVEEKDGEVIIRFKTPEQAERALKEAEKLGLEVEL, which “folding stability dG” value is on record?
A: Its value is 4.62 kcal/mol.

Q: Which “folding stability dG” value does the source give for EVIELNIKFKTPEQREKLKEIAKKLNAEVVEEKDGEVIIRFKTPEQAERALKEAEKLGAEVEL here?
A: Its value is 4.39 kcal/mol.

Q: With EVIELKIKFKTPEQREKLKEIAKKLNAEVVEEKDGEAIIRFKTPEQAERALKEAEKLGAEVEL as the variant, how does the “folding stability dG” value read?
A: Its value is 4.08 kcal/mol.

Q: Which “folding stability dG” value does the source give for EVIELKIKFKLPEQREKLKEIAKKLNAEVVEEKDGEVIIRFKTPEQAERALKEAEKLGAEVEL here?
A: The value was 4.75 kcal/mol.

Q: With EVIELKIKFKTPEQREKLKEIAKKLNAEVVEEKDGEVIIRFKTPEIAERALKEAEKLGAEVEL as the variant, how does the “folding stability dG” value read?
A: Its value is 4.15 kcal/mol.

Q: With EVIELKQKFKTPEQREKLKEIAKKLNAEVVEEKDGEVIIRFKTPEQAERALKEAEKLGAEVEL as the variant, how does the “folding stability dG” value read?
A: The value was 3.21 kcal/mol.

Q: With EVIELKRKFKTPEQREKLKEIAKKLNAEVVEEKDGEVIIRFKTPEQAERALKEAEKLGAEVEL as the variant, how does the “folding stability dG” value read?
A: Its value is 3.04 kcal/mol.

Q: For EVIELKVKFKTPEQREKLKEIAKKLNAEVVEEKDGEVIIRFKTPEQAERALKEAEKLGAEVEL, which “folding stability dG” value is on record?
A: Its value is 4.44 kcal/mol.

Q: With EVIELKIKFKTPEQREKLKEIAKKLNAEVVEEKDGEVIIRFPTPEQAERALKEAEKLGAEVEL as the variant, how does the “folding stability dG” value read?
A: Its value is 3.79 kcal/mol.

Q: With EVIELKIKFKTPEQREKLKEIAKKLNAEVSEEKDGEVIIRFKTPEQAERALKEAEKLGAEVEL as the variant, how does the “folding stability dG” value read?
A: The value was 4.51 kcal/mol.

Q: Which “folding stability dG” value does the source give for EVIELKIKFKTPEQREKLKEIAKKLPAEVVEEKDGEVIIRFKTPEQAERALKEAEKLGAEVEL here?
A: Its value is 3.84 kcal/mol.

Q: For EVIELKIKFKTPEQREKLKEIAKKLNAEVVEEKDGEVIIRFKTPEQAERALLEAEKLGAEVEL, which “folding stability dG” value is on record?
A: The value was 4.44 kcal/mol.

Q: With EVIELKIKFKTPEQREKLKEIAKKLNAEVVEEKDGEVIIRFKTPEQAERALREAEKLGAEVEL as the variant, how does the “folding stability dG” value read?
A: Its value is 4.45 kcal/mol.

Q: Which “folding stability dG” value does the source give for EVIELKIKFKTPEQREKLKEIAKKLNAEVVEEKDGEVIIRFKTPEQAERALCEAEKLGAEVEL here?
A: The value was 4.33 kcal/mol.

Q: For EVIELKIKFKTPEQREKLKEIAKKLNAEVVEEKDGEVIIRFKTPEQAERALQEAEKLGAEVEL, which “folding stability dG” value is on record?
A: The value was 4.1 kcal/mol.

Q: Which “folding stability dG” value does the source give for EVIELKIKFKTPEQREKLKEIAKKLNAETVEEKDGEVIIRFKTPEQAERALKEAEKLGAEVEL here?
A: Its value is 4.21 kcal/mol.

Q: With EVIELKIKFKTPEQREKLKEIAKKLNFEVVEEKDGEVIIRFKTPEQAERALKEAEKLGAEVEL as the variant, how does the “folding stability dG” value read?
A: The value was 4.4 kcal/mol.

Q: Which “folding stability dG” value does the source give for EVIELKIKFKTPEQREKLKEIAKKLNQEVVEEKDGEVIIRFKTPEQAERALKEAEKLGAEVEL here?
A: The value was 3.88 kcal/mol.

Q: For EVIELKIKFKTPEQREKLKEIAKKLNAEVVEEKDDEVIIRFKTPEQAERALKEAEKLGAEVEL, which “folding stability dG” value is on record?
A: The value was 4.1 kcal/mol.

Q: For EVIELKIKFKTPEQREKLKEIAKKLNAEVVEEKDQEVIIRFKTPEQAERALKEAEKLGAEVEL, which “folding stability dG” value is on record?
A: The value was 4.25 kcal/mol.

Q: Which “folding stability dG” value does the source give for EVIELKIKFKTPTQREKLKEIAKKLNAEVVEEKDGEVIIRFKTPEQAERALKEAEKLGAEVEL here?
A: The value was 4.32 kcal/mol.

Q: Which “folding stability dG” value does the source give for CVIELKIKFKTPEQREKLKEIAKKLNAEVVEEKDGEVIIRFKTPEQAERALKEAEKLGAEVEL here?
A: Its value is 4.27 kcal/mol.

Q: With EVIELKIKFKTPEQREKLKEIAKKLNAEVVEEKDGEVIIRFKTPEQAERALKWAEKLGAEVEL as the variant, how does the “folding stability dG” value read?
A: Its value is 4.37 kcal/mol.

Q: For EVIELKIKFKTPEQREKLKEIAKKLNAEVVEEKDGEVIIRFKTPEQAERALKCAEKLGAEVEL, which “folding stability dG” value is on record?
A: The value was 4.4 kcal/mol.

Q: With EVIELKIKFKTPEQREKLKEIAKKLNAEVVEEKDGEVIIRFKTPEQAERALKFAEKLGAEVEL as the variant, how does the “folding stability dG” value read?
A: The value was 4.49 kcal/mol.

Q: For EVIELKIKFKTPEQREKLKEIAKKLNAEVVPEKDGEVIIRFKTPEQAERALKEAEKLGAEVEL, which “folding stability dG” value is on record?
A: The value was 4.06 kcal/mol.

Q: For EVIELKIKFKTPEQREKLKEIAKKLNAEVVNEKDGEVIIRFKTPEQAERALKEAEKLGAEVEL, which “folding stability dG” value is on record?
A: Its value is 4.49 kcal/mol.

Q: For EVIELKIKFKTPEQREKLKEIAKKLNAEVVEEKDGEVIIRFKTPEQAERALKEAEKLGAEPEL, which “folding stability dG” value is on record?
A: The value was 4.14 kcal/mol.

Q: With EVIELKIKFKTPEQREKLKEIAKKLNAEVVEIKDGEVIIRFKTPEQAERALKEAEKLGAEVEL as the variant, how does the “folding stability dG” value read?
A: The value was 4.39 kcal/mol.

Q: With EVIELKIKFKTPEQREKLKEIAKKLNAEVVETKDGEVIIRFKTPEQAERALKEAEKLGAEVEL as the variant, how does the “folding stability dG” value read?
A: The value was 4.52 kcal/mol.

Q: Which “folding stability dG” value does the source give for EVIELKIKFKTPEQREKLKEIAKKLNAEVVEEKDGEVRIRFKTPEQAERALKEAEKLGAEVEL here?
A: The value was 4.28 kcal/mol.

Q: Which “folding stability dG” value does the source give for EVIELKIKFKTPEQREKLKEIAKKLNAEVVEEKDGEVIIRFKTPEQAVRALKEAEKLGAEVEL here?
A: The value was 4.17 kcal/mol.

Q: With EVIELKIKFKTPEQREKLKEIAKKLNAEVVEEKDGEVIIRVKTPEQAERALKEAEKLGAEVEL as the variant, how does the “folding stability dG” value read?
A: Its value is 4.09 kcal/mol.

Q: For EVIELKIKFKTPEQREKLKEIAKKLNAEVVEEKDGEVIHRFKTPEQAERALKEAEKLGAEVEL, which “folding stability dG” value is on record?
A: Its value is 3.68 kcal/mol.

Q: With EVIELKIKFKTPEQREKLKEIAKKLNAEVVEEKDGEVIARFKTPEQAERALKEAEKLGAEVEL as the variant, how does the “folding stability dG” value read?
A: The value was 4.41 kcal/mol.

Q: For EVIELKIKFKTPEQREKLKEIAKKLNAEVVEEKDGEVILRFKTPEQAERALKEAEKLGAEVEL, which “folding stability dG” value is on record?
A: The value was 4.67 kcal/mol.

Q: With EVIELKIKFKTPEQREKLKEIRKKLNAEVVEEKDGEVIIRFKTPEQAERALKEAEKLGAEVEL as the variant, how does the “folding stability dG” value read?
A: Its value is 4.18 kcal/mol.

Q: Which “folding stability dG” value does the source give for EVIELKIKFKTPEQREKLKEIAKKLNAEVVEEKDGEVIIRFKTPEQAERHLKEAEKLGAEVEL here?
A: Its value is 3.68 kcal/mol.

Q: Which “folding stability dG” value does the source give for EVIELKIKFKTPEQREPLKEIAKKLNAEVVEEKDGEVIIRFKTPEQAERALKEAEKLGAEVEL here?
A: The value was 4.28 kcal/mol.

Q: With EVIELKIKFKTPEQREKLKEIAKKLNAEVVEEKDGEVIIRFKTPEQAERALKEAEVLGAEVEL as the variant, how does the “folding stability dG” value read?
A: Its value is 4.45 kcal/mol.

Q: Which “folding stability dG” value does the source give for EVIELKIKFKTPEQREKLKEIAKKLNAEVVEEKDGEVIIRFKTPEQAERALKEAEDLGAEVEL here?
A: The value was 4.21 kcal/mol.

Q: With EVIELKIKFKTPEQREKLYEIAKKLNAEVVEEKDGEVIIRFKTPEQAERALKEAEKLGAEVEL as the variant, how does the “folding stability dG” value read?
A: Its value is 4.89 kcal/mol.

— the MegaScale stability set (Tsuboyama et al. 2023)
